Measurements published in US20250027060A1 (VIB VZW, published 2025).
Changes are numbered by the printed parent chain. Names may count otherwise.

Legend:
[1] = biological target: T1, ALKTG-EGFL (human ALK amino acids 648-1025) (human, UniProt Q9UM73 648-1025, N-linked glycans; EndoH-trimmed (deglycosylated) for crystals and SEC-MALLS); test: BLI, biotinylated ALKAL2 F97E on streptavidin biosensors, ALKTG-EGFL in solution
T1 construct: The C-terminal Fc-His6 tag was removed by caspase 3; also called ALK (in BLI, SEC-MALLS and ITC)
T1 sequence (Q9UM73 648-1025): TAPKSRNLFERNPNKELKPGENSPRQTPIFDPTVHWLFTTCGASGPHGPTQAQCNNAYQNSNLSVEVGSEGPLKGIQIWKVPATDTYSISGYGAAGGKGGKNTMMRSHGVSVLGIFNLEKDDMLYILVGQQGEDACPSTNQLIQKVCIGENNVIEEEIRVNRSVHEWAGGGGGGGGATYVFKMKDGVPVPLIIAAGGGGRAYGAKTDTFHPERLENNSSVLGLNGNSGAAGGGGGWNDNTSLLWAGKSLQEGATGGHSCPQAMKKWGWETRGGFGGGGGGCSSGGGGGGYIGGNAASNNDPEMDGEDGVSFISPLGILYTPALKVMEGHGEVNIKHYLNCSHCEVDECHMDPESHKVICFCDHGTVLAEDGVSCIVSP
From the text: (§1) FIGS. 10A and 10B Representative response curves as measure by biolayer-interferometry (BLI) for the interaction of WT ALKAL1 and ALKAL1 mutants (containing charge-reversal mutations of residues involved in site 1) (FIG. 10A) and WT ALKAL2 and ALKAL2 mutants (FIG. 10B) with ALK_TG-EGFL and LTK_TG-EGFL. For WT ALKALs LTK curves were fitted with a 2:1 binding model (red) while for ALK a 1:1 model was used. Start and end concentrations of the 3-fold dilution series used for the WT measurements is shown as an inset while for all mutants a […] dilution series from 6.4 μM-400 nM was used.
(§2) All measurements of binding kinetics and dissociation constants were performed using an Octet Red 96 (Forté Bio) in assay buffer (20 mM HEPES pH 7.4, 150 mM NaCl, 0.02% (w/v) BSA, 0.002% (v/v) Tween 20) at 298K. ALKALs were immobilized to a level of 0.5 nm on streptavidin-coated biosensors (Forté Bio). To verify that no a specific binding was present during the assay, non-functionalized biosensors were used as a control by measuring in parallel all ligand concentrations as well as running buffer. For all mutants a two-fold dilution series from 6.4 μM-400 nM was employed. Data analysis was performed using the Data Analysis software 9.0.0.14 (Forté Bio) and binding curves were exported to Prism8 (Graphpad Software) for plotting of curves.

[2] = biological target: T2, LTKTG-EGFL (human LTK amino acids 63-420) (human, UniProt P29376 63-420); test: BLI, biotinylated ALKAL2 F97E on streptavidin biosensors, LTKTG-EGFL in solution, dilution series 6.4 µM-400 nM; only component 1 is printed
T2 construct: Fc-His6 tag removed by caspase 3; also called LTK (in BLI, SEC-MALLS and ITC)
T2 sequence: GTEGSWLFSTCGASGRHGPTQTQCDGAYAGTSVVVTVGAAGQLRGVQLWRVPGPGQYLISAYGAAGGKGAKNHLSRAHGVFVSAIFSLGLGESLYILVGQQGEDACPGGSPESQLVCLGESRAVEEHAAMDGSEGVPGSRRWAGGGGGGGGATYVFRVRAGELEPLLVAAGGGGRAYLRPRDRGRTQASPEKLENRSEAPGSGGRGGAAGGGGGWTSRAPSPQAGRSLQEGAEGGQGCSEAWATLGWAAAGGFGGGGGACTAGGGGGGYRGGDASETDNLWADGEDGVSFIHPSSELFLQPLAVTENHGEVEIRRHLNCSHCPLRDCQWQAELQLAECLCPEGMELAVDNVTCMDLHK
From the text: as §1, §2

[3] = biological target: T1, ALKTG-EGFL (human ALK amino acids …); test: BLI, biotinylated ALKAL2 R136E on streptavidin biosensors, ALKTG-EGFL in solution, dilution series 6.4 µM-400 nM
From the text: as §1, §2

[4] = biological target: T2, LTKTG-EGFL (human LTK amino acids …); test: BLI, biotinylated ALKAL2 R136E on streptavidin biosensors, LTKTG-EGFL in solution, dilution series 6.4 µM-400 nM
From the text: as §1, §2

[5] = biological target: T3, LTKTG (human LTK amino acids 63-379) (human, UniProt P29376 63-379); test: ITC at 310 K, LTKTG (10 µM) titrated with ALKAL1FL (40 µM), one-site model
T3 construct: also called LTK TG supradomain
T3 sequence: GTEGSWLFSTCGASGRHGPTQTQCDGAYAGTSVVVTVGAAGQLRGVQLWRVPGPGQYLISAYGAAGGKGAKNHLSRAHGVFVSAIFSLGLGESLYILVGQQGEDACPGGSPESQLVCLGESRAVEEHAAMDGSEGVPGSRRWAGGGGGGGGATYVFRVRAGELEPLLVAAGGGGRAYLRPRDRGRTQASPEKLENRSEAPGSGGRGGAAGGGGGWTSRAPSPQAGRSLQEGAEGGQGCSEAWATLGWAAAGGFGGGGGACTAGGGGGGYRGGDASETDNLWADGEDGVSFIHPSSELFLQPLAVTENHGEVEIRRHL
Experimental: FIG. 12H, ITC experiments for the titration of LTKTG (10 μM) with ALKAL1FL (40 μM) Standard deviations were calculated based on 2 measurements.
(§3) Experiments were performed using a MicroCal PEAQ-ITC instrument at 310K. Proteins used in ITC experiments were expressed in HEK293S cells grown in suspension. As a final purification step all proteins were buffer exchanged to the same HBS buffer via size-exclusion chromatography. Titrations were preceded by an initial injection of 0.5 μL. The injection spacing was optimized per experiment to allow for the signal to get back to a stable baseline. Throughout the titration the sample was stirred at a speed of 750 r.p.m. Data were analyzed using the PEAQ-ITC analysis software (version 1.1.0.1262, Malvern) and fit using a “one set of sites” model.

[6] = biological target: T2, LTKTG-EGFL (human LTK amino acids …); test: ITC at 310 K, LTKTG-EGFL (7.2 µM) titrated with ALKAL1FL (55 µM), one-site model
Experimental: (§4) The right panel represents the binding isotherm obtained from the integration of the raw data and fitted to a one-site model. Standard deviations were calculated based on 3 measurements.
as §3

[7] = biological target: T4, ALKTG (human ALK amino acids 648-985) (human, UniProt Q9UM73 648-985, N-linked glycans; EndoH-trimmed for crystals and SEC-MALLS); test: ITC
T4 construct: Fc-His6 tag removed by caspase 3; also called ALK TG supradomain
T4 sequence (Q9UM73 648-985 limits assumed): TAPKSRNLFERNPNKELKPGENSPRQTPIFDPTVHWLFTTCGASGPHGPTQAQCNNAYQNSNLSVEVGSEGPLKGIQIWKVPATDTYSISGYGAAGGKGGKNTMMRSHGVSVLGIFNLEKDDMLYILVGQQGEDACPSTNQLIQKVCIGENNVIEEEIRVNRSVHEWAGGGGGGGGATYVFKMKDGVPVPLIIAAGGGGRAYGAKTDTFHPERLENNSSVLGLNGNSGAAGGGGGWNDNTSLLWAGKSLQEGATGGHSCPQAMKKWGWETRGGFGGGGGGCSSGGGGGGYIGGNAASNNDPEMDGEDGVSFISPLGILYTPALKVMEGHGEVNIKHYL
Experimental: as §3

[8] = biological target: T1, ALKTG-EGFL (human ALK amino acids …); test: ITC, 310 K, one-site model
Experimental: (§5) FIG. 5A and FIG. 5B Isothermal titration calorimetry thermograms for the titration of ALK_TG-EGFL (10 μM) with ALKAL2 (100 μM) (FIG. 5A) and titration of ALKAL1 (25 μM) with ALK_TG-EGFL (210 μM) (FIG. 5B). […] The right panel represents the binding isotherm obtained from the integration of the raw data and fitted to a one-site model. Standard deviations were calculated based on 3 measurements.
as §3

[9] = biological target: T2, LTKTG-EGFL (human LTK amino acids …); test: ITC, 310 K, one-site model, 2:1 stoichiometry
Experimental: as §4, §3

[10] = biological target: T4, ALKTG (human ALK amino acids 648-985); test: ITC at 310 K, ALKAL1 (33 µM) titrated with ALKTG (330 µM), one-site model
Experimental: FIG. 5E, Titration of ALKAL1 (33 μM) with ALKTG (330 μM) Standard deviations were calculated based on 3 measurements.
as §3

[11] = biological target: T3, LTKTG (human LTK amino acids 63-379); test: ITC at 310 K, LTKTG (10 µM) titrated with ALKAL1 (70 µM), one-site model
Experimental: FIG. 12F, ITC experiments for the titration of LTKTG (10 μM) with ALKAL1 (70 μM) Standard deviations were calculated based on 2 measurements.
as §3

[12] = biological target: T2, LTKTG-EGFL (human LTK amino acids …); test: ITC at 310 K, LTKTG-EGFL (5 µM) titrated with ALKAL1 (56 µM), one-site model
Experimental: as §4, §3

[13] = biological target: T1, ALKTG-EGFL (human ALK amino acids …); test: ITC at 310 K, ALKAL1 (25 µM) titrated with ALKTG-EGFL (210 µM), one-site model
Experimental: as §5, §3

[14] = biological target: T1, ALKTG-EGFL (human ALK amino acids …); test: BLI, biotinylated ALKAL1 on streptavidin biosensors, ALKTG-EGFL in solution 6 µM to 400 nM, 1:1 model
From the text: as §1, §2

[15] = biological target: T2, LTKTG-EGFL (human LTK amino acids …); test: BLI, biotinylated ALKAL1 on streptavidin biosensors, LTKTG-EGFL in solution 300 nM to 11 nM, 2:1 binding model, component 1
From the text: as §1, §2

[16] = biological target: T2, LTKTG-EGFL (human LTK amino acids …); test: BLI, biotinylated ALKAL1 on streptavidin biosensors, LTKTG-EGFL in solution 300 nM to 11 nM, 2:1 binding model, component 2
From the text: as §1, §2

[17] = biological target: T2, LTKTG-EGFL (human LTK amino acids …); test: BLI, biotinylated ALKAL1 F76E on streptavidin biosensors, LTKTG-EGFL in solution, dilution series 6.4 µM-400 nM, biphasic fit, component 1
From the text: as §1, §2

[18] = biological target: T2, LTKTG-EGFL (human LTK amino acids …); test: BLI, biotinylated ALKAL1 F76E on streptavidin biosensors, LTKTG-EGFL in solution, dilution series 6.4 µM-400 nM, biphasic fit, component 2
From the text: as §1, §2

[19] = biological target: T2, LTKTG-EGFL (human LTK amino acids …); test: BLI, biotinylated ALKAL1 R102E on streptavidin biosensors, LTKTG-EGFL in solution, dilution series 6.4 µM-400 nM
From the text: as §1, §2

[20] = biological target: T2, LTKTG-EGFL (human LTK amino acids …); test: BLI, biotinylated ALKAL1 R115E on streptavidin biosensors, LTKTG-EGFL in solution, dilution series 6.4 µM-400 nM
From the text: as §1, §2

B1: ALKAL2^F97E (residues 78-152) (ligand, human, UniProt Q6UX46 78-152, looked up)
chain: PSPEQRVEIVPRDLRMKDKELKHLTGPLYFSPKCSKHFHRLYHNTRDCTIPAYYKRCARLLTRLAVSPVCMEDKQ
notes: range 78-152; Avi-tagged and biotinylated in BLI; used as purified protein in SEC-MALLS and Ba/F3 assays; also called ALKAL2 site 2 mutant F97E
- Kd [1]: 200 nM
- koff [1]: 0.071 s⁻¹
- kon [1]: 450000 M⁻¹ s⁻¹
- Kd [2]: 8400 nM
- koff [2]: 0.16 s⁻¹
- kon [2]: 53000 M⁻¹ s⁻¹

B2: ALKAL2^R136E (residues 78-152) (ligand, human, UniProt Q6UX46 78-152, looked up)
chain: B1 chain with E20F, R59E
notes: range 78-152; also called ALKAL2 site 1 mutant R136E
- Kd [3]: 1500 nM
- koff [3]: 0.8 s⁻¹
- Kd [4]: 5900 nM
- koff [4]: 0.12 s⁻¹
- kon [4]: 20000 M⁻¹ s⁻¹

B3: ALKAL1FL (full-length ALKAL1, residues 28-129) (ligand, human, UniProt Q6UXT8 28-129, looked up)
chain: RPRGRRGARVTDKEPKPLLFLPAAGAGRTPSGSRSAEIFPRDSNLKDKFIKHFTGPVTFSPECSKHFHRLYYNTRECSTPAYYKRCARLLTRLAVSPLCSQT
notes: range 28-129; Sumostar tag removed by caspase 3
- Kd [5]: 24 nM
- ΔG [5]: -10.8 kcal/mol
- ΔH [5]: -29.6 kcal/mol
- Kd [6]: 11 nM
- ΔG [6]: -11.3 kcal/mol
- ΔH [6]: -31.7 kcal/mol

B4: ALKAL1 (truncated, residues 57-129) (ligand, human, UniProt Q6UXT8 57-129, looked up)
chain: PSGSRSAEIFPRDSNLKDKFIKHFTGPVTFSPECSKHFHRLYYNTRECSTPAYYKRCARLLTRLAVSPLCSQT
notes: range 57-129; Tag-free in ITC, SEC-MALLS, crystals and Ba/F3 assays; also called ALKAL1^WT; WT ALKAL1
- fold decrease in affinity against ALKTG-EGFL [7]: 4 fold
- Kd [8]: 600 nM
- Kd [9]: 10 nM
- Kd [10]: 2500 nM
- ΔG [10]: -7.95 kcal/mol
- ΔH [10]: -5.5 kcal/mol
- Kd [11]: 69 nM
- ΔG [11]: -10.2 kcal/mol
- ΔH [11]: -28.6 kcal/mol
- Kd [12]: 55 nM
- ΔG [12]: -10.4 kcal/mol
- ΔH [12]: -29.4 kcal/mol
- ΔG [13]: -8.93 kcal/mol
- ΔH [13]: -7.3 kcal/mol
- Kd [14]: 760 nM
- koff [14]: 0.093 s⁻¹
- kon [14]: 130000 M⁻¹ s⁻¹
- Kd [15]: 48 nM
- koff [15]: 0.0025 s⁻¹
- kon [15]: 52000 M⁻¹ s⁻¹
- Kd [16]: 31 nM
- koff [16]: 0.026 s⁻¹
- kon [16]: 860000 M⁻¹ s⁻¹

B5: ALKAL1^F76E (residues 57-129) (ligand, human, UniProt Q6UXT8 57-129, looked up)
chain: B4 chain with F20E
notes: range 57-129; Avi-tagged and biotinylated in BLI; used as purified protein in SEC-MALLS and Ba/F3 assays; also called ALKAL1 site 2 mutant
- Kd [17]: 350 nM
- koff [17]: 0.0005 s⁻¹
- kon [17]: 4000 M⁻¹ s⁻¹
- Kd [18]: 1500 nM
- koff [18]: 0.11 s⁻¹
- kon [18]: 60000 M⁻¹ s⁻¹

B6: ALKAL1^R102E (residues 57-129) (ligand, human, UniProt Q6UXT8 57-129, looked up)
chain: B4 chain with R46E
notes: range 57-129; also called ALKAL1 site 1 mutant R102E
- Kd [19]: 14000 nM

B7: ALKAL1^R115E (residues 57-129) (ligand, human, UniProt Q6UXT8 57-129, looked up)
chain: B4 chain with R59E
notes: range 57-129; also called ALKAL1 site 1 mutant R115E
- Kd [20]: 3100 nM
- koff [20]: 0.041 s⁻¹
- kon [20]: 13000 M⁻¹ s⁻¹
